US6617117B1, “MAP kinases: polypeptides, polynucleotides and uses thereof” (Medical Research Council, priority 1996, dated 2003)

T1: SAPK4 (Homo sapiens, UniProt O15264)
T1 sequence (O15264 1-365): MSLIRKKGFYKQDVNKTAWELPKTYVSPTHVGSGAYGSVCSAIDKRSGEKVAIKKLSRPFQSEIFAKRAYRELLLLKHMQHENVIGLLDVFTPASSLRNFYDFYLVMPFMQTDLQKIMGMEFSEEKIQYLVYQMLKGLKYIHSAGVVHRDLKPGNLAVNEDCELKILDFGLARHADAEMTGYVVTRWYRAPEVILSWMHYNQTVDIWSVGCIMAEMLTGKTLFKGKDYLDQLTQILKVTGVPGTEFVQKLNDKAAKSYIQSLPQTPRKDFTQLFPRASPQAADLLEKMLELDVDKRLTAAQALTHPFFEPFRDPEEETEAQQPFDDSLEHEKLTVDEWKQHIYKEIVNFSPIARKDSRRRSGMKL

T2: SAPK3 (Rattus norvegicus, UniProt Q63538)
T2 sequence (Q63538 1-367): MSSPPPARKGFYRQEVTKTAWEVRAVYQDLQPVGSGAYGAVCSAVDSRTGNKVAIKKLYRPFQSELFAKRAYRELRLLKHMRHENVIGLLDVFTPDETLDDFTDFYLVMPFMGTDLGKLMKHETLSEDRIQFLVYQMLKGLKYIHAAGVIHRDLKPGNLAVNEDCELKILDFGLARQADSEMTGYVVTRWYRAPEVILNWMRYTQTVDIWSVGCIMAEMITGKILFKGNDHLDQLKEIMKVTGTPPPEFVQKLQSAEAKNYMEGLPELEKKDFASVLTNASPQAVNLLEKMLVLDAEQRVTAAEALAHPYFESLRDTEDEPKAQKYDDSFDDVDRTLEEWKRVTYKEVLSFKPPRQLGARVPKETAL

T3: rat SAPK3 (Rattus norvegicus, UniProt Q63538)
T3 construct: made in house; host or cells: E. coli BL21 (DE3)
T3 sequence (Q63538 1-367): T2 sequence (Q63538 1-367)

B1: SKK3: SAP kinase kinase 3, upstream activator of SAPK2a, SAPK2b, SAPK3 and SAPK4 (protein)
chain: MSQSKGKKRNPGLKIPKEAFEQPQTSSTPPRDLDSKACISIGNQNFEVKADDLEPIMELGRGAYGVVEKMRHVPSGQIMAVKRIRATVNSQEQKRLLMDLDISMRTVDCPFTVTFYGALFREGDVWICMELMDTSLDKFYKQVIDKGQTIPEDILGKIAVSIVKALEHLHSKLSVIHRDVKPSNVLINALGQVKMCDFGISGYLVDSVAKTIDAGCKPYMAPERINPELNQKGYSVKSDIWSLGITMIELAILRFPYDSWGTPFQQLKQVVEEPSPQLPADKFSAEFVDFTSQCLKKNSKERPTYPELMQHPFFTLHESKGTDVASFVKLILGD
B2: c-Jun: transcription factor activation domain linked to GST, kinase substrate (protein)
chain: MTAKMETTFYDDALNASFLPSESGPYGYSNPKILKQSMTLNLADPVGSLKPHLRAKNSDLLTSPDVGLLKLASPELERLIIQSSNGHITTTPTPTQFLCPKNVTDEQEGFAEGFVRALAELHSQNTLPSVTSAAQPVNGAGMVAPAVASVAGGSGSGGFSASLHSEPPVYANLSNFNPGALSSGGGAPSYGAAG
modifications: left off: a dimerising Fc or GST
B3: ATF2: transcription factor activation domain linked to GST, kinase substrate (protein)
chain: MSDDKPFLCTAPGCGQRFTNEDHLAVHKHKHEMTLKFGPARNDSVIVADQTPTPTRFLKNCEEVGLFNELASPFENEF
modifications: left off: a dimerising Fc or GST
B4: SAP-1: transcription factor activation domain linked to GST, kinase substrate (protein)
chain: TPSPPLSSHPDIDTDIDSVASQPMELPENLSLEPKDQDSVLLEKDKVNNSSRSKKPKGLELAPTLVITSSDPSPLGILSPSLPTASLTPAFFSQTPIILTPSPLLSSIHFWSTLSPVAPLSPARLQGANTLFQFPSVLNSHGPFTLSGLDGPSTPGPFSPDLQKT
modifications: left off: a dimerising Fc or GST
B5: MAPKAP-K3: MAP kinase-activated protein kinase-3, GST fusion used as kinase substrate (protein)
chain: MDGETAEEQGGPVPPPVAPGGPGLGGAPGGRREPKKYAVTDDYQLSKQVLGLGVNGKVLECFHRRTGQKCALKLLYDSPKARQEVDHHWQASGGPHIVCILDVYENMHHGKRCLLIIMECMEGGELFSRIQERGDQAFTEREAAEIMRDIGTAIQFLHSHNIAHRDVKPENLLYTSKEKDAVLKLTDFGFAKETTQNALQTPCYTPYYVAPEVLGPEKYDKSCDMWSLGVIMYILLCGFPPFYSNTGQAISPGMKRRIRLGQYGFPNPEWSEVSEDAKQLIRLLLKTDPTERLTITQFMNHPWINQSMVVPQTPLHTARVLQEDKDHWDEVKEEMTSALATMRVDYDQVKIKDLKTSNNRLLNKRRKKQAGSSSASQGCNNQ
modifications: left off: a dimerising Fc or GST

Tests used:
[1] = target: T1, SAPK4; test: Co-transfection of SAPK4 with SKK3 into COS cells; type: cell-based; set-up: expressed in transfected cells; host or cells: COS1 cells, co-transfected with human SKK3; conditions: n=3
Procedure: For bacterial expression, the open reading frames of human cDNA clones hSAPK2B2, hSAPK32 and hSAPK412 were amplified by PCR and subcloned as EcoRI fragments into expression vector pGEX4T-1 (Pharmacia), followed by transformation into E. coli strain BL21(DE3). The transformed bacteria were grown to an absorbance of 0.6 at 600 nm and induced with 0.4 mM isopropyl-1-thio-β-galactopyranoside (IPTG). […] For expression of c-myc epitope-tagged SAPK4, PCR was used to introduce the nucleotide sequence encoding the amino acid sequence […] (SEQ. ID. NO: 4) at the carboxy-terminus of SAPK4, followed by a stop codon. The resulting EcoRI/NotI fragment was subcloned into the mammalian expression vector pcDNA3.1 (Invitrogen). […] PCR fragments were verified by DNA sequencing. Transfections into COS1 cells were done as described in Example 4 and Cuenda et al, 1997.
We have shown previously that SKK3 accounts for 95% and SKK2 for 5% of the SAPK2a activator detected after Mono S chromatography of lysates from KB cells that have been stressed in several ways or stimulated with IL1 (Cuenda et al, 1996; Meier et al, 1996). […] SKK3 was also the only activator of SAPK4 after subjecting KB cells to osmotic stress using sorbitol (data not shown). Further evidence that SKK3 can activate SAPK4 in vivo was obtained by co-transfection into COS cells. […]

[2] = target: T2, SAPK3; test: Co-transfection of SAPK3 with SKK3 into COS cells (FIG. 14); type: cell-based; set-up: expressed in transfected cells; host or cells: COS-1 cells (vector pSG5), alone or with human SKK3 or MEK kinase
Procedure: FIG. 14. SKK3 activates SAPK3 in transfected cells. COS-1 cells were transiently transfected with DNA expressing SAPK3 or co-transfected with either SKK3 or MEK kinase (MEKK). Cells were stimulated in DMEM for 15 min or with 0.5 M sorbitol. After stimulation and lysis, SAPK3 was immunoprecipitated from the cell lysates using an anti-SAPK3 antibody raised against the C-terminal 16 residues of SAPK3 (see Methods) and activity measured using MBP as the substrate.
Cell culture and transient transfections. 293, KB and COS-7 cells were cultured in Dulbecco's modified Eagles' Medium (DMEM) supplemented with 10% foetal calf serum, at 37° C., in an atmosphere of 5% CO2. Transfections of 293 cells were carried out using the calcium-phosphate method. Cells were split to a density of 2×106 per 10 cm dish, and after 12 h at 37° C., 10 μg of plasmid DNA in 0.45 ml of sterile water was added to 50 μl of sterile CaCl2, and then 0.5 ml of sterile buffer composed of 50 mM N,N-bis[2-hydroxyethyl]-2-aminoethanesulphonic acid/HCl pH 6.96, 0.28 M NaCl and 1.5 mM Na2HPO4 was added. The resulting mixture was vortexed for 1 min, allowed to stand at room temperature for 20 min, and then added dropwise to a 10 cm dish of 293 cells. The cells were placed in an atmosphere of 3% CO2 for 16 h at 37° C., then the medium was aspirated and replaced with new DMEM containing 10% foetal calf serum. […]

[3] = target: T4, Xenopus homologue of SAPK2a (Xenopus laevis, UniProt P47812); test: Substrate specificity: rate of phosphorylation by SAPK2a (Table 1); type: biochemical; conditions: substrate 1 μm; SAPK 0.15 U/ml; means ± SEM of six determinations
T4 construct: made in house; host or cells: E. coli
T4 sequence (P47812 whole entry): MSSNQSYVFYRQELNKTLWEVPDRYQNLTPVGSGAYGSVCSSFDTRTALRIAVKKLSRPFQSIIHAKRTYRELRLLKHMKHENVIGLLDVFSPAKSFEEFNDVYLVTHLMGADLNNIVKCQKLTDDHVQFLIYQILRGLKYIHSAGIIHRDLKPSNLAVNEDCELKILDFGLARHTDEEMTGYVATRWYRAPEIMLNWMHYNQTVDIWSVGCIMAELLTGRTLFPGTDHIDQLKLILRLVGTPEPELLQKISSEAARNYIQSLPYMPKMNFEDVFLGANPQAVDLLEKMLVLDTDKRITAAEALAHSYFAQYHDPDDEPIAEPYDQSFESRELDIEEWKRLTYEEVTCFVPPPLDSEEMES
Procedure: (§1) Experiments were carried out with the Xenopus homologue of SAPK2a, human SAPK2b and human SAPK4. The SAPKs were activated in vitro (FIG. 7) and phosphorylation of each protein was studied at a SAPK concentration of 0.15 U/ml. The results are presented as means±SEM of six determinations (two separate experiments). The data for rat SAPK3 are taken from Example 4 and Cuenda et al (1997).

[4] = target: T3, rat SAPK3; test: Substrate specificity: rate of phosphorylation by SAPK3 (Tables 1 and 2); type: biochemical; conditions: for Rate of phosphorylation relative to MBP, SAPK3: substrate 1 μM, SAPK 0.1 U/ml; for Rates of phosphorylation relative to MBP, SAPK3: substrate 1 μm, rat SAPK3 data taken from Example 4 and Cuenda et al (1997)
Procedure: as §1
(§2) Protein kinase assays. SAPK3 was assayed routinely by the phosphorylation of MBP. […] After 20 min at 30° C.
(§3) Table 2. Comparison of substrate specificities of SAPK2 and SAPK3. SAPK2 and SAPK3 were activated in vitro (FIG. 15) and phosphorylation of each protein studied at a SAPK concentration of 0.1 U/ml.

[5] = target: T5, human SAPK2b (Homo sapiens, UniProt Q15759); test: Substrate specificity: rate of phosphorylation by SAPK2b (Table 1); type: biochemical; conditions: substrate 1 μm; SAPK 0.15 U/ml; means ± SEM of six determinations
T5 construct: a number of SAPK2b clones, some of which were full-length; made in house; host or cells: E. coli BL21(DE3)
T5 sequence (Q15759 whole entry): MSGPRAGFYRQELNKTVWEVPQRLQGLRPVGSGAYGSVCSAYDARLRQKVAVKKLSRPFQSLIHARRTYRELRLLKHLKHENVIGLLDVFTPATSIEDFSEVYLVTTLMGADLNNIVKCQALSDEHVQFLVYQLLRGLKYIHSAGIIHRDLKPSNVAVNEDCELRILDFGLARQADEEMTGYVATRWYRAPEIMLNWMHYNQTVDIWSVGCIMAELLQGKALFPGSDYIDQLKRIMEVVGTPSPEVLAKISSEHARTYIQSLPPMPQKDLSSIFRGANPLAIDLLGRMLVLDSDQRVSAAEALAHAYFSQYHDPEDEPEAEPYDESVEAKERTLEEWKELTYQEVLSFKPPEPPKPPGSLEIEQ
Procedure: as §1

[6] = target: T6, SAPK2 (Xenopus homologue) (Xenopus laevis, UniProt P47812); test: Substrate specificity: rate of phosphorylation by SAPK2 (Table 2); type: biochemical; conditions: substrate 1 μM; SAPK 0.1 U/ml
T6 construct: made in house; host or cells: E. coli
T6 sequence (P47812 whole entry): as the sequence (P47812 whole entry) above
Procedure: as §2, §3

[7] = target: T1, SAPK4; test: Substrate specificity: rate of phosphorylation by SAPK4 (Table 1); type: biochemical; set-up: made in house; host or cells: E. coli BL21(DE3); conditions: substrate 1 μm; SAPK 0.15 U/ml; means ± SEM of six determinations
Procedure: as §1
SAPK4 is assayed routinely by the phosphorylation of MBP. […] After washing and drying the papers (Alessi et al, 1995 Meth. Enzymol. 255, 279-290) ^32P radioactivity incorporated into MBP is measured.

Molecule	Elevation of SAPK4 activity by co-expression [1]	Elevation of SAPK3 activity by coexpression [2]	Greater activation of transfected SAPK3 by osmotic shock where cotransfected ([2]; osmotic shock)	Rates of phosphorylation relative to MBP, SAPK2a [3]	Rate of phosphorylation relative to MBP, SAPK3 [4]	Rates of phosphorylation relative to MBP, SAPK3 [4]	Rates of phosphorylation relative to MBP, SAPK2b [5]	Rate of phosphorylation relative to MBP, SAPK2 [6]	Rates of phosphorylation relative to MBP, SAPK4 [7]
B1	12.5±0.63 fold	10 fold	30 fold	–	–	–	–	–	–
B2	–	–	–	4 ± 1%	2 ± 1	2 ± 1%	7 ± 2%	2 ± 1	6 ± 2%
B3	–	–	–	40 ± 2%	107 ± 20	107 ± 20%	62 ± 2%	86 ± 20	130 ± 2%
B4	–	–	–	25 ± 1%	108 ± 15	108 ± 15%	27 ± 5%	55 ± 13	62 ± 5%
B5	–	–	–	87 ± 10%	–	20 ± 6%	66 ± 6%	–	18 ± 2%
